Sequences and labels used below:
T1: Recombinant human MerTK human Fc Chimera protein (R&D systems, Cat #391-MR-100) (human, UniProt Q12866 26-499, limits assumed)
T1 construct: Bought; also called recombinant human MerTK protein; MerTK-Fc
T1 sequence: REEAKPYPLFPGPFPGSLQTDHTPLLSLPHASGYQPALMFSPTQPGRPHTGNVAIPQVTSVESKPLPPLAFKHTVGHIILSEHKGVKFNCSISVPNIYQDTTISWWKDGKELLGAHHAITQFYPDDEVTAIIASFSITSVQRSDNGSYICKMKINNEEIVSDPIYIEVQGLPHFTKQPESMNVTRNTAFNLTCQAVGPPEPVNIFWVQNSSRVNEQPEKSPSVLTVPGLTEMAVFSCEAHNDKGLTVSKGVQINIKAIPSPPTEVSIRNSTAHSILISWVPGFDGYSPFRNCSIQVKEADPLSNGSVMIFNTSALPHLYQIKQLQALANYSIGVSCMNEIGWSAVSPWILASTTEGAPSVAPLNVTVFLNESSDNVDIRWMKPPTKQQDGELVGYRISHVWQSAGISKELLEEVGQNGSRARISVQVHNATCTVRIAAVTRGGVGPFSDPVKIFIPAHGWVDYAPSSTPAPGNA

T2: human MerTK endogenously expressed on cells (SK-MEL-5 cells; human macrophages) (human, UniProt Q12866 21-999)
T2 construct: also called MerTK on SK-MEL-5
T2 sequence: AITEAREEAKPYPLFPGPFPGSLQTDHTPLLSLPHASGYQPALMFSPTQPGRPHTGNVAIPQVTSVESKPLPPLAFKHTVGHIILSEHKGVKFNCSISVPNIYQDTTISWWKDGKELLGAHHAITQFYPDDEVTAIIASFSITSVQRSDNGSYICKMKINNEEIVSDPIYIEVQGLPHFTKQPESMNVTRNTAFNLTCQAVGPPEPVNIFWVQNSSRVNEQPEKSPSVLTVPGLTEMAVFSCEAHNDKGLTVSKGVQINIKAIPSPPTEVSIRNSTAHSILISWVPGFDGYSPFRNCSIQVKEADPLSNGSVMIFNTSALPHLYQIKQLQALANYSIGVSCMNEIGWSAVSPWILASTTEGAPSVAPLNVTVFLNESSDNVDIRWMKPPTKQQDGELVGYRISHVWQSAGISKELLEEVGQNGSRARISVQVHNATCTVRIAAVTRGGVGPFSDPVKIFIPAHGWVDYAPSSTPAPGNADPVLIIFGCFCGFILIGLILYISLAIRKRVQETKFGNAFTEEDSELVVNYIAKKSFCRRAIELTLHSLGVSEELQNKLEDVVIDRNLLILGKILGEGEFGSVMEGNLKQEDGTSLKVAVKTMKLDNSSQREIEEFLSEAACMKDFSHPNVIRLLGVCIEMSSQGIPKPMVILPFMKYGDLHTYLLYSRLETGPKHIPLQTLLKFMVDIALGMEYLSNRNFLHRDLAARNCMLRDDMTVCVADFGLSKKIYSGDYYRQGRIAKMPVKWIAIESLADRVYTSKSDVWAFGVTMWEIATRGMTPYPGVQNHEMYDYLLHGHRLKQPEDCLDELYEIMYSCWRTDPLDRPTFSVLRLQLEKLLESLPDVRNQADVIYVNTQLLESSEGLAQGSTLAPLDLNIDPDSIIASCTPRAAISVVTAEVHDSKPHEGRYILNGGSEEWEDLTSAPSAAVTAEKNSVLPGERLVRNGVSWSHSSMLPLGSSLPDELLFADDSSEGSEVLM

B1: MTK-21 (antibody, human IgG1, V domains shown)
VH: QIQLVQSGPELKKPGETVKISCKASGYTFTNFGMTWVRQAPGMDLKWMGWINTYTGEPKYADDFKGRFALSLETSASTAYLQITNFKNEDTATYFCARGGGRLGLRPLDYWGQGTTLTVSS
VL: DIQMTQTTSSLSASLGDRVTISCRASQDINNYLNWYQQKPDGTVKLLIYYTSSLHSGVPSRFSGSGSGTDYSLTITNLEQEDIATYFCQQGNTLPWTFGGGTRLEIK
B2: MTK-16 (antibody, human IgG1, V domains shown)
VH: LIQLVQSGPELKKPGETVKISCKASGYTFTNHGMNWVKQDPGKGLKWMGWINTYTGEPTYADDFKGRFVFSMETSASAAFLQINNLKNEDTATYFCARKGVTAARYFDYWGQGTTLTVSS
VL: DIVMTQSPKFMSTSVGDRVSITCKASQNVRTAVAWYKKKPGQSPKALINLASNRHTGVPDRFTGSGSGTDFTLTISNVQSEDLADYFCLQHWNYPLTFGGGTKLEIK
B3: MTK-07 (antibody, human IgG1, V domains shown)
VH: DVQLQESGPGLVKPSQSLSLTCSVTGYSITSGYYWNWIRQFPGNTLEWMGYMSFDGDNKFNPSLKNRISITRDTSKNQFFLRLNSVTTEDTATYYCARGGYNYGSTEANWGQGTLVTVST
VL: QIVLTQSPAIMSAFPGEKVTITCSASSSVTYMHWFQQKPGTSPKLWIFSTSNLASGVPARFSGSGSGTSYSLTISRMEAEDAATYYCQQRSSYPFTFGSGTKLEIK
B4: MTK-10 (antibody, human IgG1, V domains shown)
VH: QVTLKESGPGILQPSQTLSLTCSFSGFSLTTSGMGVGWIRQPSGKGLEWLAHIWSDDDKRSNPALKSRLTISQDSSTNQVFLKIASVDTADSATYYCSHLTPVREFAYWGPGTLVTVSE
VL: DIQMTQTTSSLSASLGDRVTISCSASQGISNYLNWFQQKPDGTVKLLIYYTSRLHSGVPSRFSGSGSGTDFSLTISNLEPEDIATYYCQQYTKLPYTFGGGTKLEIK
B5: MTK-15 (antibody, human IgG1, V domains shown)
VH: QIQLVQSGPELKKPGETVKISCKASGYTFTNYGVHWVKQAPGKGLKWMGWINTYTGEPTYADDFKGRFAFSLETSASTAYLQINNLKNEDMATYFCARGNRYAYMDYWGQGTSVTVSS
VL: QIVLSQSPAILSASPGEKVTMTCRASSSVSYMHWYQQKSGSSPKPWIYATSNLASGVPARFSGSGSGTSYSLTISRVEAEDAATYYCQQWSSNPRTFGGGTKLEIK
B6: MTK-06 (antibody, human IgG1, V domains shown)
VH: QIQLVQSGPELKKPGETVKISCKASGYTFTNYGMNWVKQAPGKGLKWMGWINTNTGEPTYAEEFKGRFAFSLETSASTAYLQINNLKNEDTATYFCARYYNYWYFDVWGAGTTVTVSS
VL: B5 VL with S39P, N93K, R95P
B7: MTK-13 (antibody, human IgG1, V domains shown)
VH: DVQLQESGPGLVKPSQSLSLTCSVTGYSITSGYYWNWIRQFPGNKLEWMGNIDYDGSNKYNPSLKNRISITRDTSKNHFFLKLNSVTPEDTATYFCARDGGNYRSFAYWGQGTLVTVSA
VL: B3 VL with A9P, F14S, T30S, H33Y, F48Y, S51F, A82V
B8: MTK-18 (antibody, human IgG1, V domains shown)
VH: B1 VH with N31H, F32Y, R38K, M43K, D44G, K59T, L70F, T84N, F86L, R102Q
VL: B1 VL with I21F, D28A, N30S, S53R, T76S, R103K
B9: MTK-17 (antibody, human IgG1, V domains shown)
VH: QIQLVQSGPELKKPGETVKISCKASGYTFTNFGMNWVKQAPGKGLKWMGWINTYTGEPTYADDFKGRFAFSLETSASTAYLQINNLKNEDTATYFCSRGAVLRAGAMDCWGQGTSVTVSS
VL: DIQMTQSSSYLSVSLGGRVTITCKASDHINNWLAWYQQKPGNAPRLLISGATSLETGVPSRFSGSGSGKDYTLSITSLQTEDVATYYCQQYWSTPRTFGGGTKLEIK
B10: MTK-03 (antibody, human IgG1, V domains shown)
VH: B3 VH with T120A
VL: B3 VL with T30N, F48Y

Residue numbers refer to the chain shown, from its start.

For the first experiment, the target named is T1, Recombinant human MerTK human Fc …. Nature of the experiment: competition ELISA: His-tagged Gas6 (3 ug/ml) binding to captured human MerTK-Fc, anti-His-HRP detection; blocked ligand Gas6. As to the method: (§1) Rabbit anti-human IgG polyclonal antibody (Jackson ImmunoResearch, Cat #309-005-008) was captured to a high-protein binding plate at 2 μg/ml 4° C. overnight. After washing with 0.05% Tween20 in PBS three times, 5% BSA in PBS was added for 1 hour. Recombinant human MerTK human Fc Chimera protein (R&D systems, Cat #391-MR-100) was added at 2 μg/ml for 1 hour and the plates were then washed. Anti-MerTK antibodies were titrated to final concentration range of between 66.6 nM to 4 pM and then 40 μl of serially diluted antibody and 40 μl of His tag-conjugated recombinant Gas6 protein (R&D systems, Cat #885-GSB-050) at 3 μg/ml or His tag-conjugated recombinant ProS protein (R&D systems, Cat #9489-PS-100) at 20 μg/ml. After a further incubation for 1 hour, plates were washed and incubated for 1 hour with HRP-conjugated anti-6×His tag antibody (Abcam, Cat #ab1187). Plates were then washed and an HRP substrate (TMB) was used to develop the plates. After sufficient color change was observed, the reaction was stopped by adding 50 μl 2N H₂SO₄ and the OD was measured using a spectrophotometer (BioTek).
Turning to B1, the “IC50 (read off the curve)” value was roughly 6 nM.
Take B2: the “IC50 (read off the curve)” value is roughly 7 nM.
The same measure, in the same setting: for B3 the value was roughly 8 nM.

The next experiment deals with T2, human MerTK endogenously expressed on …. The experiment in a line: flow cytometry on SK-MEL-5 cells (endogenous human MerTK), APC anti-human kappa detection, MFI. The protocol: To determine whether recombinant anti-human MerTK antibodies of the present disclosure bind to human MerTK endogenously expressed on SK-MEL-5 cells and to CHO cells overexpressing mouse MerTK (CHO-muMerTK OE cells), the following experiments were performed. SK-MEL-5 cells and CHO-muMerTK OE cells were plated at 40,000 cells/well. Anti-MerTK antibodies were titrated to a final concentration range of between 66.6 nM to 4 pM and then added to the cells. After 30 min on ice, cells were washed and then stained with APC-conjugated mouse anti-human Kappa antibody (Southern Biotech Cat #9230-11, Birmingham, Ala.) and a viability die (Life Technologies) in the presence of Fc block solution on ice for 30 minutes, and then washed twice with cold FACS buffer (2% FBS in PBS). Cells were fixed with 4% paraformaldehyde in PBS. Stained cells were acquired on a BD FACS Canto II cytometer and the mean fluorescence intensity (MFI) was calculated with FlowJo software and K value was calculated with Prism software. […] A lower Kd value reflects higher binding of antibody to cells.
As for B4, the half-maximal effective concentration (EC50 (read off the curve)) was roughly 0.3 nM.
Regarding B2, the “EC50 (read off the curve)” value was roughly 2 nM.
With B5, the 50% effective concentration (EC50 (read off the curve)) is roughly 0.2 nM.
B6: the “EC50 (read off the curve)” value was roughly 0.2 nM.
Still for that read-out and setting: as for B7, the figure is roughly 0.6 nM.

For a further experiment, the target named is T1, Recombinant human MerTK human Fc …. The experiment in a line: competition ELISA: His-tagged ProS (20 ug/ml) binding to captured human MerTK-Fc, anti-His-HRP detection; blocked ligand ProS. The protocol:
as §1
On to B8, for which the “IC50 (read off the curve)” value was roughly 5 nM.
With B9, the “IC50 (read off the curve)” value fell in the range of 5 to 8 nM.
Same read-out and setting: for B10 the value was roughly 4 nM; for B3, roughly 3 nM.

The record behind these values is patent US20210261685A1 (Alector, published 2021).
